Results from PMC3689955 (The Journal of Biological Chemistry, 2013).

Molecular target: T1, Ligase IV (UniProt P49917 1-911)
T1 construct: DNA Ligase IV, the subunit of XL; also called DNA Ligase IV
T1 sequence (looked up): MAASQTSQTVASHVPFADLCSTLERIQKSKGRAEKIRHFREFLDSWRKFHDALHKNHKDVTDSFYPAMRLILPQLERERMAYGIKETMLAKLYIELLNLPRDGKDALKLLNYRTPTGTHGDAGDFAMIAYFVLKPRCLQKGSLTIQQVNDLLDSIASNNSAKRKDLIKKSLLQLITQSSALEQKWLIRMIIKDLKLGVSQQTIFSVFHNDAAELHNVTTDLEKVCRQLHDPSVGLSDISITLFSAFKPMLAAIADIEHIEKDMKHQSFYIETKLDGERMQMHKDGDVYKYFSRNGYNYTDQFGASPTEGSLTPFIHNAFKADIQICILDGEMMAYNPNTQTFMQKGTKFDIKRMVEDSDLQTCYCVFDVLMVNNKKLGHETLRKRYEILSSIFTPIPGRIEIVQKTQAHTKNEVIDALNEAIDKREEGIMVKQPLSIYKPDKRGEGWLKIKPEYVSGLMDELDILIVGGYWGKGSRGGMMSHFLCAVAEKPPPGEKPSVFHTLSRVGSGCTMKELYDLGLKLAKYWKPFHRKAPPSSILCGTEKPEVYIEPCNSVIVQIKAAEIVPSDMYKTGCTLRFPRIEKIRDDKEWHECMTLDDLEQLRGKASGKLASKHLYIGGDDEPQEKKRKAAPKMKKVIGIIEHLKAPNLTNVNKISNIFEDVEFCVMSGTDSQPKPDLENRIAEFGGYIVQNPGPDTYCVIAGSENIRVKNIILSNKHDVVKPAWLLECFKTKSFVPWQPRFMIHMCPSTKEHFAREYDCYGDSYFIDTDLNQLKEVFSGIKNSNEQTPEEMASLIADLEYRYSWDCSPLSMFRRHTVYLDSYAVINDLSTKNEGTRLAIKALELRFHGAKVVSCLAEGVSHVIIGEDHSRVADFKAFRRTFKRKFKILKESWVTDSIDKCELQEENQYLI
Conditions: both partners purified

stoichiometry N: < 1 XRCC4 dimer to Ligase IV molar ratio
B1: XRCC4 (natural protein, UniProt Q13426 1-336, looked up)
chain: MERKISRIHLVSEPSITHFLQVSWEKTLESGFVITLTDGHSAWTGTVSESEISQEADDMAMEKGKYVGELRKALLSGAGPADVYTFNFSKESCYFFFEKNLKDVSFRLGSFNLEKVENPAEVIRELICYCLDTIAENQAKNEHLQKENERLLRDWNDVQGRFEKCVSAKEALETDLYKRFILVLNEKKTKIRSLHNKLLNAAQEREKDIKQEGETAICSEMTADRDPVYDESTDEESENQTDLSGLASAAVSKDDSIISSLDVTDIAPSRKRRQRMQRNLGTEPKMAPQENQLQEKENSRPDSSLPETSKKEHISAENMSLETLRNSSPEDLFDEI
notes: also called XRCC4 homodimer
